PMC9080894

Key:
[1] = biological target: T1, thrombin, BODIPY-labeled (human, UniProt P00734;P00734 328-363;364-622); experiment: single-particle fluorescence microscopy of aptamer-coated microspheres
[2] = biological target: T1, thrombin, BODIPY-labeled; experiment: single-particle fluorescence microscopy of coated microspheres

| Binder | binding result [1] | binding result [2] |
| --- | --- | --- |
| TTCACTGTGGTTGGTGTGGTTGG (structured_DNA, 5'-NH2) [ssTBA] | binds |  |
| CCAACCACAGTGTT (ssDNA, 3'-NH2) [NH2-com] |  | no binding |
